From paper PMC7503162

Experiments:
[1] = target: Recombinant human LRP1 cluster II Fc chimera protein (human); test: SPR
[2] = target: Recombinant human LRP1 cluster III Fc chimera protein (human); test: SPR
[3] = target: Recombinant human LRP1 cluster IV Fc chimera protein (human); test: SPR
[4] = target: LRP1 (Homo sapiens) (UniProt Q07954); conditions: cited from earlier work
[5] = target: Low-density lipoprotein receptor-related protein 1 (LRP1), purified from human placenta (human (purified from human placenta)) (UniProt Q07954); test: SPR
Sequence of Low-density lipoprotein receptor-related protein 1 (LRP1), purified from human placenta (human (purified from human placenta)) (Q07954 20-4544): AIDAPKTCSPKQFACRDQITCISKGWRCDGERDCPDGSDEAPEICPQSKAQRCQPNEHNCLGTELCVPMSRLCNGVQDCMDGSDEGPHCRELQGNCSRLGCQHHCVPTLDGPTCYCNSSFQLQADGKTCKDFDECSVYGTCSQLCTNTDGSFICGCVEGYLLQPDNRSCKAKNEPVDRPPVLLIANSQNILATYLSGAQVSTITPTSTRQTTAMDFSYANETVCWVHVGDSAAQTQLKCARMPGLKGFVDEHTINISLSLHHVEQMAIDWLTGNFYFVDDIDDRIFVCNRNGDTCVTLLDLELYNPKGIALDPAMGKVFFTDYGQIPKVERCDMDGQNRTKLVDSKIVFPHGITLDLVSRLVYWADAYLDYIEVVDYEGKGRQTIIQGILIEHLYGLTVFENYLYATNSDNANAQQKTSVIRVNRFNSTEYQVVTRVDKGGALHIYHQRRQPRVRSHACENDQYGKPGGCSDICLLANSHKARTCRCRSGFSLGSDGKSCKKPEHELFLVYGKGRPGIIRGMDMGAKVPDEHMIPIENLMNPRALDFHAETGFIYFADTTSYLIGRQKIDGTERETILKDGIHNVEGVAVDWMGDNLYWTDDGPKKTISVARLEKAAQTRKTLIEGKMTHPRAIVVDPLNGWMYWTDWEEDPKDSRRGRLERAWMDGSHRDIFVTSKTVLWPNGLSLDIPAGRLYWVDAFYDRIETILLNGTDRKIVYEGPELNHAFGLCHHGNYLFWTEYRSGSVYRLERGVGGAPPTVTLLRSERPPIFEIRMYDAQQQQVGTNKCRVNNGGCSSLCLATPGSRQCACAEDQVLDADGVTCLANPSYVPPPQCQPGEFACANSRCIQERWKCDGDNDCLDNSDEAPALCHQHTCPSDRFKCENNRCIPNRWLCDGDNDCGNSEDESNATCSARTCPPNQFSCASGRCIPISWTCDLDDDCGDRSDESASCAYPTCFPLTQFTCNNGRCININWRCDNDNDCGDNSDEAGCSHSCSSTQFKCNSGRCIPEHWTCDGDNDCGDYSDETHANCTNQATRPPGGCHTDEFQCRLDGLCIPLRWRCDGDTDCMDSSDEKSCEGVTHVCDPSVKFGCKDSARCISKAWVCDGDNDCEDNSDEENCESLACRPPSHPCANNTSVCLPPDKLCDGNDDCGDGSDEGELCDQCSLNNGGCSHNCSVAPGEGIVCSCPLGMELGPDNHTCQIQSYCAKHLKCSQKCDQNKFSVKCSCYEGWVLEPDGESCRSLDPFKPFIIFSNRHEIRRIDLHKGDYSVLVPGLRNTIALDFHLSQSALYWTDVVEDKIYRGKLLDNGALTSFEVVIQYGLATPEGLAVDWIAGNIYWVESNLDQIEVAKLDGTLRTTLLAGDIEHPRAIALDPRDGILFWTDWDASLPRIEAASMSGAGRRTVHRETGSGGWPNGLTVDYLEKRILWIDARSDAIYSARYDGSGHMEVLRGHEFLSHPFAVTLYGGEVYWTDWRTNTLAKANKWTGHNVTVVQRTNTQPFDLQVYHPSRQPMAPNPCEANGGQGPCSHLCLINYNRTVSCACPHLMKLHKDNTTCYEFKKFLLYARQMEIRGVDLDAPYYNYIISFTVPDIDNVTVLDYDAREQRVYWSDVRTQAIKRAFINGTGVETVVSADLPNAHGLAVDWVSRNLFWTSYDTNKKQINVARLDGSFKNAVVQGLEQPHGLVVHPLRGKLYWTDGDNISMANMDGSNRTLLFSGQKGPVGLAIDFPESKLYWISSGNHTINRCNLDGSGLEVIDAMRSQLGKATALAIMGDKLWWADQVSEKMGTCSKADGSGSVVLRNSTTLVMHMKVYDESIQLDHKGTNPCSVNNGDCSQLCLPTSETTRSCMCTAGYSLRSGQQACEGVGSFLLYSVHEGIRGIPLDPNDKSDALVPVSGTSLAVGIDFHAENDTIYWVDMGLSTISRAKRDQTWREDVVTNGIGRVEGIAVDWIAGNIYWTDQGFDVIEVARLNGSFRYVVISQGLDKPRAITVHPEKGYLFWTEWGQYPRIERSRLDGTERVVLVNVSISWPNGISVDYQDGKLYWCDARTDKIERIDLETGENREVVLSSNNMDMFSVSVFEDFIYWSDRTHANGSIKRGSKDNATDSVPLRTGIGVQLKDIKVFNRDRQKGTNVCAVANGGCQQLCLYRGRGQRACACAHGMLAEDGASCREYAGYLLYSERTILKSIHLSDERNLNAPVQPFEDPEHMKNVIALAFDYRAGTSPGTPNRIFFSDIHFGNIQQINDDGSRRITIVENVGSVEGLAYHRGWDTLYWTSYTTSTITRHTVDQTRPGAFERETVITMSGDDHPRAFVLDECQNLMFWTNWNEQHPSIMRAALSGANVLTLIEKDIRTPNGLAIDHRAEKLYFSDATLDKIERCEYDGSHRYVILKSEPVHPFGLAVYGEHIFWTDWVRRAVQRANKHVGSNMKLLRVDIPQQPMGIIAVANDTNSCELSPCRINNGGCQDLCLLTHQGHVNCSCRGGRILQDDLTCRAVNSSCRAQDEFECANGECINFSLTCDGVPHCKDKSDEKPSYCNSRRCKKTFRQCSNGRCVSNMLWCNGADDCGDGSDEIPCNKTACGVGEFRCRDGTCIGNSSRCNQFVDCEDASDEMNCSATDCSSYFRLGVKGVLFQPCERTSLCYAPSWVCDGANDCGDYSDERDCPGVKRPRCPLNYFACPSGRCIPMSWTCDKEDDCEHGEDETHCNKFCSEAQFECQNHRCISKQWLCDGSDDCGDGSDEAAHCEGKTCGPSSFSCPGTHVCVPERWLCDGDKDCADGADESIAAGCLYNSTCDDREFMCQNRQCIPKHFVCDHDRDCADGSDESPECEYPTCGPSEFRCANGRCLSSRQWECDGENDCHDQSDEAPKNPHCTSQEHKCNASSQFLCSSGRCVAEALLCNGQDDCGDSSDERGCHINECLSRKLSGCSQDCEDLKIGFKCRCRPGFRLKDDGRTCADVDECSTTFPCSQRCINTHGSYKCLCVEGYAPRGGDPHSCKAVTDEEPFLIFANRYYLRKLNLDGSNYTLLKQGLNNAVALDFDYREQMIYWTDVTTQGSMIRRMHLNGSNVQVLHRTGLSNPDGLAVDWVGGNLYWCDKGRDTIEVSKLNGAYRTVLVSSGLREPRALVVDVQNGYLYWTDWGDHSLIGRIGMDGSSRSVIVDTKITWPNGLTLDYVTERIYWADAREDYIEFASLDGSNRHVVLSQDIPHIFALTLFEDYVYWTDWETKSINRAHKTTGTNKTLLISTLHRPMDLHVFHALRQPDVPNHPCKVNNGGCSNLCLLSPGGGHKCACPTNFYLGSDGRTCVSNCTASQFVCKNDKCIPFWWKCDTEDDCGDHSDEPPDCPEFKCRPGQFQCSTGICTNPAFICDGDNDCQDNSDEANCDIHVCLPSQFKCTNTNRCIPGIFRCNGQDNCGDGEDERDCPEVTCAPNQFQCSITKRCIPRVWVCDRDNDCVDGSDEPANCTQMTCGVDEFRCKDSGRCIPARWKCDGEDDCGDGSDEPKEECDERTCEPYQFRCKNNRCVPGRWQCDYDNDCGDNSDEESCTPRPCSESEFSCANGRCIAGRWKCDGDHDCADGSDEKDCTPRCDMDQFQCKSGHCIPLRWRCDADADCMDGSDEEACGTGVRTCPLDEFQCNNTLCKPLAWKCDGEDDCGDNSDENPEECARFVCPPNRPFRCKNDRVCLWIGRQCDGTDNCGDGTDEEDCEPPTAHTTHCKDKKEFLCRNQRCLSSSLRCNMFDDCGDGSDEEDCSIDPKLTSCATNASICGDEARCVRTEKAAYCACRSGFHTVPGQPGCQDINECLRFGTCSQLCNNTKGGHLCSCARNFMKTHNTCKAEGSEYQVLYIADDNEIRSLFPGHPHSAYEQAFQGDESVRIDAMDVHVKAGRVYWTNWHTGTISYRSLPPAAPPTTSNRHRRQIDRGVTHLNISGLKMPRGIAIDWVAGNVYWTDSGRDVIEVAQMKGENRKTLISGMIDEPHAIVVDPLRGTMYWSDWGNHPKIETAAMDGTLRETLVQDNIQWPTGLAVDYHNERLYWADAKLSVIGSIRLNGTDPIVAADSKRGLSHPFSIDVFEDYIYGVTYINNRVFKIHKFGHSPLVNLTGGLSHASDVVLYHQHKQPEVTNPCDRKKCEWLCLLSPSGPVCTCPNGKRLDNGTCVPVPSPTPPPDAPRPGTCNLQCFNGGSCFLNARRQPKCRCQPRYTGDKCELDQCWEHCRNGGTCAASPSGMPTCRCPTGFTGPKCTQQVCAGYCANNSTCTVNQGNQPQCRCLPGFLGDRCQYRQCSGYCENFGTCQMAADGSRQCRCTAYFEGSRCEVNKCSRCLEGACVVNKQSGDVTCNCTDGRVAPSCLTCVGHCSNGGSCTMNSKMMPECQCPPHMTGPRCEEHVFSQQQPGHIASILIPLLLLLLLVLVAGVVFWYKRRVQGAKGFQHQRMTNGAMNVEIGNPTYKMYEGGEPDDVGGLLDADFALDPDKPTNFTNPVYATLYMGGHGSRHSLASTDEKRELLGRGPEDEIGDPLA

Sequence of Tissue inhibitor of metalloproteases 1 (TIMP-1) (P01033 24-207): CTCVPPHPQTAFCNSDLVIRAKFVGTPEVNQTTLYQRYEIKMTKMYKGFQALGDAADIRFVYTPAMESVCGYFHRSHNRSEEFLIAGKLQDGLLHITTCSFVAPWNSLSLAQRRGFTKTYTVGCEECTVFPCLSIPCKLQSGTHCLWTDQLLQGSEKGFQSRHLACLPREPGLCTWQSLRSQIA
Sequence of LRP1 (Homo sapiens) (Q07954 20-4544): as the sequence (Q07954 20-4544) above

Substance | Kd [1] [µM] | Kd [2] [µM] | Kd [3] [µM] | ka2 (bivalent model, second step) [5] [s⁻¹] | kd1 (bivalent model, first step) [5] [s⁻¹] | kd2 (bivalent model, second step) [5] [s⁻¹] | other results
Tissue inhibitor of metalloproteases 1 (TIMP-1) (from UniProt P01033 24-207) (natural protein) | 0.129 | 0.039 | 0.391 |  |  |  | 
MMP-1/TIMP-3 complex (from UniProt P03956) |  |  |  |  |  |  | Kd [4]: 0.005 µM
MMP-1/TIMP-1 complex (from UniProt P01033 24-207) | 0.027 | 0.012 | 0.032 | 0.012 | 0.026 | 2.7e-05 | ka1 (bivalent model, first step) [5]: 93000 M⁻¹ s⁻¹; ka1 (bivalent model, first step) [1]: 120000 M⁻¹ s⁻¹; ka2 (bivalent model, second step) [1]: 0.02 s⁻¹; kd1 (bivalent model, first step) [1]: 0.077 s⁻¹; kd2 (bivalent model, second step) [1]: 0.00085 s⁻¹; ka1 (bivalent model, first step) [2]: 200000 M⁻¹ s⁻¹; ka2 (bivalent model, second step) [2]: 0.019 s⁻¹; kd1 (bivalent model, first step) [2]: 0.079 s⁻¹; kd2 (bivalent model, second step) [2]: 0.00062 s⁻¹; ka1 (bivalent model, first step) [3]: 99000 M⁻¹ s⁻¹; ka2 (bivalent model, second step) [3]: 0.02 s⁻¹; kd1 (bivalent model, first step) [3]: 0.064 s⁻¹; kd2 (bivalent model, second step) [3]: 0.001 s⁻¹
Human His-tagged proMMP-1 (from UniProt P03956 20-469) (enzyme) | 0.169 | 0.034 | 0.358 |  |  |  | 
Active MMP-1 (enzyme) |  |  |  | 0.0084 | 0.017 | 0.0015 | Kd [5]: 0.025 µM
